The values that follow come from patent US20240018252A1.

Where a chain is given by its changes, count along the chain named. Numbers in names are those of the source. Where “and” joins values, the source holds several entries; their conditions need not be identical. Equal values may be shown once.

The labels stand for the following.
B1: Combo_Rd4_0.6nM_C29 LCQ05/N297Q/K222R Aclys vc0101 (antibody, human IgG1, part only)
heavy: EVQLLESGGGLVQPGGSLRLSCAASGFTFSSYPMSWVRQAPGKGLEWVSAIGGSGGSLPYADSVKGRFTISRDNSKNTLYLQMNSLRAEDTAVYYCARYWPMDIWGQGTLVTVSS
light: EIVLTQSPGTLSLSPGERATLSCRASQSVSSSYLAWYQQKPGQAPRLLMYDASIRATGIPDRFSGSGSGTDFTLTISRLEPEDFAVYYCQQYQSWPLTFGQGTKVEIK
chain: GGLLQGPP
modifications: LCQ05 tag; Aclys vc0101 drug conjugate
B2: Combo_Rd4_0.6nM_C29 H7c/N297A/K222R AmPEG6 Aur3377 (antibody, V domains shown)
VH: B1 heavy
VL: B1 light
modifications: H7c tag LLQG (SEQ ID NO: 454), N297A and K222R (EU) in the human IgG1 heavy chain constant region; amino-PEG6-C2-Aur3377 joined by transglutaminase
B3: Combo_Rd4_0.6nM_C29 H7c/N297A/K222R AmPEG6 Aur0131 (antibody, V domains shown)
VH: B1 heavy
VL: B1 light
modifications: H7c tag LLQG (SEQ ID NO: 454), N297A and K222R (EU) in the human IgG1 heavy chain constant region; amino-PEG6-C2-Aur0131 joined by transglutaminase
B4: A02_Rd4_0.6nM_C18 (antibody, V domains shown)
VH: B1 heavy with P33A, S35N, I51V, G52L, G53D, L58T, P59Y, D103S, I104L
VL: B1 light with S31E, S32L, Q93F, S94G
B5: A02_Rd4_6nM_C19 (antibody, V domains shown)
VH: B1 heavy with P33A, S35N, G52S, G53D, L58R, P59W, D103S, I104D
VL: B1 light with S31V, S32L, Q93L, S94A
B6: A02_Rd4_6nM_C08 (antibody, V domains shown)
VH: B1 heavy with P33A, S35N, G52L, G53D, L58T, P59Y, D103S, I104P
VL: B1 light with S31F, S32L, Q93G
B7: A02_Rd4_6nM_C04 (antibody, V domains shown)
VH: B1 heavy with P33A, S35N, G52M, G53S, S57P, P59Y, D103A, I104L
VL: B1 light with S31A, S32L, S94V
B8: A02_Rd4_0.6nM_C06 (antibody, V domains shown)
VH: B1 heavy with P33A, S35N, G52S, G53D, L58A, P59W, D103S, I104L
VL: B1 light with S31V, S32L, S94R

Chain of human BCMA on BCMA-expressing tumor cells (human) (Q02223 whole entry): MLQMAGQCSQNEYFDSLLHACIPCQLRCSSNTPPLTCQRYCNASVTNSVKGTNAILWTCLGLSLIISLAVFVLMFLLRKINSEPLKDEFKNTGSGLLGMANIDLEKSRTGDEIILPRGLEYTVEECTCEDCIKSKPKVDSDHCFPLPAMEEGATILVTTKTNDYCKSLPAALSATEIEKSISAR
Chain of cynomolgus BCMA (cynomolgus (given as cyBCMA, Cyno)) (chain, as listed by the source): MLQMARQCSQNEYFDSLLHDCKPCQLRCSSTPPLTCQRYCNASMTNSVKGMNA

The first test addresses human BCMA on BCMA-expressing tumor cells (human) (UniProt Q02223). As to the kind of experiment: cell-based or functional assay.
Turning to B1, the EC50, cell viability (CellTiter-Glo, 96 h), KMS12BM LUCGFP (+) is 1.19 nM and 0.18 µg/mL; the EC50, cell viability (CellTiter-Glo, 96 h), L363 LUCGFP (+) is 1.05 nM and 0.16 µg/mL; the EC50, cell viability (CellTiter-Glo, 96 h), MM1.S LUCGFP (BCMA++) is 0.34 nM and 0.05 µg/mL.

Consider B2, for which the EC50, cell viability (CellTiter-Glo, 96 h), KMS12BM LUCGFP (+) was 5.01 nM and 0.75 µg/mL; the EC50, cell viability (CellTiter-Glo, 96 h), L363 LUCGFP (+) is 1.36 nM and 0.2 µg/mL; the EC50, cell viability (CellTiter-Glo, 96 h), MM1.S LUCGFP (BCMA++) is 0.3 nM and 0.05 µg/mL.

With B3, the EC50, cell viability (CellTiter-Glo, 96 h), KMS12BM LUCGFP (+) was 0.85 nM and 0.13 µg/mL; the EC50, cell viability (CellTiter-Glo, 96 h), L363 LUCGFP (+) was 0.81 nM and 0.12 µg/mL; the EC50, cell viability (CellTiter-Glo, 96 h), MM1.S LUCGFP (BCMA++) is 0.23 nM and 0.03 µg/mL.

The next test concerns the target cynomolgus BCMA (cynomolgus (given as cyBCMA, Cyno)). As to the kind of experiment: SPR, IgG immobilized, cyno BCMA analyte, 37 C.
As to B4, the dissociation constant (Kd) (commonly the concentration at which binding is half-saturated) was determined as 197 pM; the off-rate constant (koff) (commonly the rate constant with which the complex falls apart) came to 0.000639 s⁻¹; the on-rate constant (kon) – broadly, a measure of how fast the partners come together – was found to be 3.24e+06 M⁻¹ s⁻¹.

B5 yielded a Kd of 260 pM, a koff of 0.000661 s⁻¹ and a kon of 2.54e+06 M⁻¹ s⁻¹.

With B6, the dissociation constant Kd was 5070 pM, the koff was determined as 0.0113 s⁻¹ and the association rate constant (kon) came to 2.23e+06 M⁻¹ s⁻¹.

Take B7: the Kd is 381 pM, the koff worked out at 0.000831 s⁻¹ and the kon was 2.18e+06 M⁻¹ s⁻¹.

B8 registered a Kd of 58 pM, a koff of 0.000105 s⁻¹ and an on-rate (kon) of 1.81e+06 M⁻¹ s⁻¹.
